Patent publication US20130224191A1, “NOTUM PROTEIN MODULATORS AND METHODS OF USE” (priority 2010, published 2013)

How the values were obtained:
Notum [1] = biological target: T1, Notum (Homo sapiens, UniProt Q6P988); assay: 4-MUH assay, small molecule inhibition of Notum; assay type: biochemical; conditions: 4-MUH 240 μM or 90 μM; orlistat 0-170 μM
T1 sequence (Q6P988 20-496): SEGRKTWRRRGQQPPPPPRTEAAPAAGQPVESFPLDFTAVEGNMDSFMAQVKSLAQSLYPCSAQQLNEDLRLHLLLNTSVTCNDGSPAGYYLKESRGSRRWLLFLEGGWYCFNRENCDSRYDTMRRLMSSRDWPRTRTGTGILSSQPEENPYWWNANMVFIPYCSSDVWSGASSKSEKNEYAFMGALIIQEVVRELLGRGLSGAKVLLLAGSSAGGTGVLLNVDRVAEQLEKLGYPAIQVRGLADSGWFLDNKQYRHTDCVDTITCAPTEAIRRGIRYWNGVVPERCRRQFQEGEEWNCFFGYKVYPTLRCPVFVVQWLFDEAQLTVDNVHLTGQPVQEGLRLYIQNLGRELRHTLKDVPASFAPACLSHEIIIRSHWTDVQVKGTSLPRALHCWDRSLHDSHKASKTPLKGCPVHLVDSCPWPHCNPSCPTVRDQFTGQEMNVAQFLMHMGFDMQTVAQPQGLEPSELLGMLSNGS
Experimental: In addition to the assays described in Examples 23 and 24, a fluorescent esterase substrate, 4-methylumbelliferyl heptanoate (Sigma), can be used to measure the activity of hydrolases using standard assay conditions (Richardson and Smith, 2007, PMID: 17620441; Jacks and Kircher, 1967, PMID: 5582971). Briefly, 4-MUH was dissolved in DMSO to a final concentration of 1.2 mM. This substrate was diluted 1:10 into assay buffer (0.1M Tris, pH 7.5, 50 mM NaCl, 0.05% Brij) and incubated with defined amounts of Notum enzyme or point-mutated Notum enzymes, and enzymatic release of the fluorescent molecule 4-methylumbelliferone monitored (355 nm excitation, 460 nm emission) using a Wallac Victor3 Multilabel Counter (Perkin Elmer).
Consistent with a putative hydrolase activity for Notum, it could be hypothesized that this inactivation is related to the ability of Notum to delipidate Wnt3A. Two lipids are known to be linked to Wnt3A, a saturated palmitate chain at Cys77 and an unsaturated palmitoleoylic chain at S209 (Lorenowicz and Korswagen, 2009, PMID: 19559695). […] Therefore, the 4-MUH assay described in example 25 was performed in the presence of varying amounts of 4-MUH substrate (240 μM or 90 μM) and orlistat (0-170 μM).

[2] = tested on: mouse lineage-depleted NTX tumor cells from SCRx-CR4; assay: Cell survival/proliferation, CellTiterGlo, SCRx-CR4; assay type: cell-based, human; conditions: 1 or 10 μg/mL, 14 days
Experimental: To determine whether Notum protein impacts cell proliferation and/or apoptosis of human colorectal cancer cells, HCT-116 cells or mouse lineage-depleted NTX tumor cells (i.e. human tumor cells) were plated as described below and exposed to recombinant hNotum (e.g. hNotum-His or hNotum-hFc) and anti-Notum antibodies. Cell numbers were then assessed 12-14 days later.
Cells were then incubated for 14 days at 37° C., 5% CO2 and 5% O2 and the number of viable cells was assessed using Promega's CellTiterGlo assay kit per the manufacturer's instructions. For the HCT-116 cell line (a commercially available colorectal tumor cell line), cells were plated at 2,000 cells per well in DMEM+1% FBS, followed 24-hours later by the addition of serum free DMEM containing recombinant human Notum in the presence or absence of monoclonal antibodies SC2.D2.2 or SC2.10B3. HCT-116 cells were then incubated for 12 days at 37° C., 5% CO2 and cell viability was assessed with Promega's CellTiterGlo assay kit. Higher readings are indicative of higher viable cell counts.

[3] = tested on: Wnt3A-mediated induction of luciferase in the 293.TCF cells; assay: Wnt3A canonical signaling assay, bioactivity of Notum constructs; assay type: cell-based, human
Source text: To generate a stable population of cells that contain a reporter for the activation of canonical Wnt signaling, HEK 293T cells were transduced with a lentiviral vector, pGreenFirel-TCF (System Biosciences) which encodes a bifunctional GFP and luciferase reporter cassette under the control of a minimal CMV reporter linked to four tandem repeats of the transcriptional response elements for TCF. Transduced cells populations, termed 293.TCF cells, were subsequently used in a Wnt3A canonical signaling assay as follows: 2.5×10^4 293.TCF cells were plated per well of a 96-well tissue culture plate in 50 μL of serum-free DME medium. After 24 hours of serum starvation, 25 μL of various dilutions of conditioned medium (CM) from L/Wnt3A cells (ATCC CRL-2647; Willert, 2003) or undiluted CM from parental L-cells (ATCC CRL-2648) along with 25 μL of DMEM+0.2% FBS were added to each well. Eighteen hours after addition of CM, 100 μL of One-Glo solution (ProMega Corp.) was added to each well. The contents of each well were then mixed thoroughly to lyse the cells, 100 μL of lysate transferred to black 96-well plates, and the luminescence in each well read after 5 mins using a Wallac Victor3 Multilabel Counter (Perkin-Elmer Corp). […] More particularly, as the Wnt3A+ CM media is diluted from 25% down to approximately 3%, activation of the Wnt pathway is reduced with a corresponding decrease in luminescence.
Once the luciferase reporter system was established, assays for determining the bioactivity of various Notum modulators were performed as follows. 2.5×10^4 293.TCF cells were plated per well of a 96-well tissue culture plate in 50 μL of serum-free medium. After 23 hours of serum starvation, 25 μL of DMEM+0.2% FBS containing various Notum modulators at various concentrations (e.g., hNotum-His, hNotum-hFc, hNotum-S232A-His, murine Notum-His, murine Notum-hFc, macaque Notum-hFc, control protein-His or control protein-hFc obtained as per Examples 7, 8 and 13 above), were added to the cells. After 1 hour, 25 μL of Wnt3A or control L-cell CM were added to each well. Eighteen hours after addition of CM, 100 μL of One-Glo solution (ProMega Corp.) was added to each well, the contents of each well mixed thoroughly to lyse the cells, 100 μL of lysate transferred to black 96-well plates, and the luminescence read after 5 minutes.

rhWnt3A = biological target: T2, rhWnt3A (Homo sapiens, UniProt P56704); assay: Triton X114 partition assay, delipidation of rhWnt3A by Notum; assay type: biochemical; conditions: overnight incubation
T2 construct: purchased R & D Systems
T2 sequence (P56704 19-352): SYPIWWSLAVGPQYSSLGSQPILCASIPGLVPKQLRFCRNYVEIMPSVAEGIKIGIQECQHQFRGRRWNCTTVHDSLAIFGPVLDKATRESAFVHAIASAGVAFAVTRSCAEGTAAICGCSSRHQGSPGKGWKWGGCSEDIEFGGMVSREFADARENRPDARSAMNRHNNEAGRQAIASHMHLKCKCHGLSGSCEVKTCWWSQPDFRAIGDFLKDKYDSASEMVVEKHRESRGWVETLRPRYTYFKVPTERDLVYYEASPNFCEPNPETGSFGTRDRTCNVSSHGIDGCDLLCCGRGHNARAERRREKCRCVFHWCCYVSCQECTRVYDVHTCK
Source text: If Notum directly acts upon Wnt3A to delipidate the protein, this cleavage should result in a change in the hydrophobicity of the protein, which can be measured by a change in its partitioning behavior between aqueous and detergent phases in a Triton X114 partition assay (Bordier, 1981, PMID: 6257680): lipidated Wnt3A will be found in the […], whereas delipidated Wnt3A should show up in the […] (Willert et al., 2003, PMID: 12717451). […] An equal volume of 4.5% Triton X114 was added to the mixture, the mixture incubated on ice for 5 minutes, then at 37° C. for five minutes, before separating the phases using centrifugation at 2000×g for five minutes at room temperature. Following separation each sample was adjusted to normalize the ionic strength and Triton X114 content before analyzing the aliquots by PAGE electrophoresis. After running the gel the protein bands were transferred to a membrane for immunoblotting using an anti-rhWnt3A antibody (Cell Signaling Technology). Bands were visualized using SuperSignal West Pico Chemiluminescent substrate (Thermo Fisher Scientific).

Notum [4] = biological target: T1, Notum; assay: ELISA, fixed antibody against serial dilutions of antigen; assay type: binding
Experimental: (§1) Three methods were used to characterize the affinity of humanized SC2.D2.2 relative to its analogous mAb with the murine variable region. First, binding signal was measured for a fixed amount of antibody probed against serial dilutions of antigen in an ELISA format. […] Second, the affinity of murine SC2.D2.2 was measured by Biacore using surface plasmon resonance (SPR) to provide the results set forth in FIG. 32A. Based on a concentration series of 12.5, 6.25, 3.125, 1.5625, 0.78125 nM and using a 1:1 Langmuir binding model, the Kd of the antibody binding to antigen was estimated to be less than 0.1 nM. Long off-rates for this interaction made accurate determination of affinity through kinetics difficult. The murine antibody was then directly compared to the humanized derivative using bio-layer interferometry analysis on a ForteBIO RED (ForteBIO, Inc.) with a concentration series of 250, 125, and 62.5 nM antigen.

[5] = biological target: T3, human Notum (recombinant or endogenous; construct not specified at the place of use) (human, UniProt Q6P988 20-496); assay: bio-layer interferometry (ForteBIO RED), fixed antibody, antigen at 250, 125 and 62.5 nM by the text
T3 construct: also called hNotum; human Notum protein
T3 sequence: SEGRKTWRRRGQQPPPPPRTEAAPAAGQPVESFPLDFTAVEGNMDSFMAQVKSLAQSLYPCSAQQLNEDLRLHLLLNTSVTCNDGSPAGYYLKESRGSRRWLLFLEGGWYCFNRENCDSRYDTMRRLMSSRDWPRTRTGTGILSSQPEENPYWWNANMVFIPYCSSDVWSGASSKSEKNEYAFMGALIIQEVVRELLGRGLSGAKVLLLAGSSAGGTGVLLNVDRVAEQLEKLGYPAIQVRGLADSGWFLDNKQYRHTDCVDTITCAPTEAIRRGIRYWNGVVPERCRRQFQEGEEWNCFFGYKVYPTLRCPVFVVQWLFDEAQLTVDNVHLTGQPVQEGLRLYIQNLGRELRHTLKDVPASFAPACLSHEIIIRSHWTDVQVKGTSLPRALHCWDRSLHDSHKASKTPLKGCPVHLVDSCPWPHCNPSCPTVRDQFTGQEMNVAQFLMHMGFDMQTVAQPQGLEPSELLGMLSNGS
Experimental: Three methods were used to characterize the affinity of humanized SC2.D2.2 relative to its analogous mAb with the murine variable region. First, binding signal was measured for a fixed amount of antibody probed against serial dilutions of antigen in an ELISA format. Measured signal levels were substantially similar (data not shown). Second, the affinity of murine SC2.D2.2 was measured by Biacore using surface plasmon resonance (SPR) to provide the results set forth in FIG. 32A. […] Long off-rates for this interaction made accurate determination of affinity through kinetics difficult. The murine antibody was then directly compared to the humanized derivative using bio-layer interferometry analysis on a ForteBIO RED (ForteBIO, Inc.) with a concentration series of 250, 125, and 62.5 nM antigen.

Notum [6] = biological target: T1, Notum; assay: Bio-layer interferometry on ForteBIO RED; assay type: binding; conditions: 250, 125 and 62.5 nM antigen
Experimental: as §1

## CCCCCCCCCCC[C@@H](C[C@@H]1OC(=O)[C@H]1CCCCCC)OC(=O)[C@H](CC(C)C)NC=O [orlistat]
Notum [1]
  inhibition of hydrolysis activity of Notum upon 4MUH: inhibits the hydrolysis activity of Notum upon 4MUH in a dose-dependent fashion

B1: hNotum-Fc: recombinant human Notum fused to human IgG2 Fc, SEQ ID NO: 333 (protein)
chain: MYRMQLLSCIALSLALVTNSSEGRKTWRRRGQQPPPPPRTEAAPAAGQPVESFPLDFTAVEGNMDSFMAQVKSLAQSLYPCSAQQLNEDLRLHLLLNTSVTCNDGSPAGYYLKESRGSRRWLLFLEGGWYCFNRENCDSRYDTMRRLMSSRDWPRTRTGTGILSSQPEENPYWWNANMVFIPYCSSDVWSGASSKSEKNEYAFMGALIIQEVVRELLGRGLSGAKVLLLAGSSAGGTGVLLNVDRVAEQLEKLGYPAIQVRGLADSGWFLDNKQYRHTDCVDTITCAPTEAIRRGIRYWNGVVPERCRRQFQEGEEWNCFFGYKVYPTLRCPVFVVQWLFDEAQLTVDNVHLTGQPVQEGLRLYIQNLGRELRHTLKDVPASFAPACLSHEIIIRSHWTDVQVKGTSLPRALHCWDRSLHDSHKASKTPLKGCPVHLVDSCPWPHCNPSCPTVRDQFTGQEMNVAQFLMHMGFDMQTVAQPQGLEPSELLGMLSNGSISAMVRSVECPPCPAPPVAGPSVFLFPPKPKDTLMISRTPEVTCVVVDVSHEDPEVQFNWYVDGVEVHNAKTKPREEQFNSTFRVVSVLTVVHQDWLNGKEYKCKVSNKGLPAPIEKTISKTKGQPREPQVYTLPPSREEMTKNQVSLTCLVKGFYPSDIAVEWESNGQPENNYKTTPPMLDSDGSFFLYSKLTVDKSRWQQGNVFSCSVMHEALHNHYTQKSLSLSPGK
[2]
  increase in cell counts: 20-45%
[3]
  antagonism of Wnt3A-mediated induction of luciferase: functionally antagonize
rhWnt3A
  redistribution of rhWnt3A between Triton X114 and aqueous phase: leads to a redistribution of the rhWnt3A into the aqueous phase

B2: hSC2.D2.2 (antibody, human IgG1, V domains shown)
VH: EVQLVESGGGLVQPGGSLRLSCAASGFTFSSYGMNWVRQAPGKGLEWVSYISSSTVTTYYADSVKGRFTISRDNAKNSLYLQMNSLRDEDTAVYYCSRQNWDGGYFDVWGAGTTVTVSS
VL: DIVMTQSPLSLPVTPGEPASISCRASKSVSSSGYSYMHWYLQKPGQSPQLLIYLASNLESGVPDRFSGSGSGTDFTLKISRVEAEDVGVYYCQHSRALPLTFGAGTKLELKR
notes: Humanized variable regions cloned into vectors with human IgG1 and kappa constant regions; also called humanized SC2.D2.2
Notum [4]
  binding signal relative to antibody with murine variable region: substantially similar
[5]
  binding result: binds
Notum [6]
  affinity, binding curves: excellent affinity
